From paper PMC9391379, “Ferritin-mediated iron detoxification promotes hypothermia survival in Caenorhabditis elegans and murine neurons” (Nature Communications, 2022)

B1: C. elegans ferritin FTN-2, recombinant, untagged, wild type (natural protein, UniProt Q9TYS3 1-170, looked up)
chain: MSLARQNYHSEVEAAVNKQINIELYASYVYLSMSFYFDRDDVALPNIAKFFKEQSDEEREHATELMRVQNLRGGRVVLQDIQKPENDEWGTALKAFEAALALEKFNNESLLKLHSTAGNHNDAHLTDFIEEKYLDEQVKSINEFARMVANLKRVGPGVGEYVFDKEHFSD
notes: FTN-2, C. elegans ferritin; ORF amplified from C. elegans cDNA and cloned between NcoI and NotI of pET28a; expressed without a tag; also called FTN-2 wt; source: E. coli BL21-CodonPlus (DE3)-RIPL, purified (heat step, acid precipitation, cation exchange)
B2: C. elegans ferritin FTN-2 E58K/H61G (FeOx-mut), recombinant, untagged (natural protein, UniProt Q9TYS3 1-170, looked up)
chain: MSLARQNYHSEVEAAVNKQINIELYASYVYLSMSFYFDRDDVALPNIAKFFKEQSDEKREGATELMRVQNLRGGRVVLQDIQKPENDEWGTALKAFEAALALEKFNNESLLKLHSTAGNHNDAHLTDFIEEKYLDEQVKSINEFARMVANLKRVGPGVGEYVFDKEHFSD
notes: FTN-2, C. elegans ferritin; ORF in pET28a with the E58K/H61G double mutation made by site-directed mutagenesis; expressed without a tag; also called FTN-2 FeOx-mut; E58K/H61G-mutated FTN-2; source: E. coli BL21-CodonPlus (DE3)-RIPL, purified (heat step, acid precipitation, cation exchange)
B3: C. elegans ferritin FTN-1, recombinant, untagged, wild type (natural protein, UniProt O16453 1-170, looked up)
chain: MSLARQNYHDEVEAAVNKQINVELYASYVYLSMSAHFDRDDIALRNIAKFFKEQSDEERGHATELMRIQAVRGGRVAMQNIQKPEKDEWGTVLEAFEAALALERANNASLLKLHGIAEQRNDAHLTNYIQEKYLEEQVHSINEFARYIANIKRAGPGLGEYLFDKEEFSD
notes: FTN-1, C. elegans ferritin; ORF amplified from C. elegans cDNA and cloned between NcoI and NotI of pET28a; expressed without a tag; also called FTN-1 wt; source: E. coli BL21-CodonPlus (DE3)-RIPL, purified (heat step, acid precipitation, cation exchange)
B4: C. elegans ferritin FTN-1 E58K/H61G (FeOx-mut), recombinant, untagged (natural protein, UniProt O16453 1-170, looked up)
chain: MSLARQNYHDEVEAAVNKQINVELYASYVYLSMSAHFDRDDIALRNIAKFFKEQSDEKRGGATELMRIQAVRGGRVAMQNIQKPEKDEWGTVLEAFEAALALERANNASLLKLHGIAEQRNDAHLTNYIQEKYLEEQVHSINEFARYIANIKRAGPGLGEYLFDKEEFSD
notes: FTN-1, C. elegans ferritin; ORF in pET28a with the E58K/H61G double mutation made by site-directed mutagenesis; expressed without a tag; also called FTN-1 FeOx-mut; E58K/H61G-mutated FTN-1; source: E. coli BL21-CodonPlus (DE3)-RIPL, purified (heat step, acid precipitation, cation exchange)

Target: the molecule itself
Experiment: native gel or EMSA; recombinant FTN variants (2 µg) resolved on a 4–16% gradient NativePAGE Bis-Tris gel, Coomassie Blue stained; NativeMark standard for the size of complexes; self-assembly into high molecular weight complexes

Does B1 bind?
Result: binds

Does B2 bind?
Result: binds

Does B3 bind?
Result: binds

Does B4 bind?
Result: binds
